In patent publication US20110294738A1, “PTHR1 RECEPTOR COMPOUNDS” (priority 2008, published 2011):
“And” between values parts separate entries of the source, which are not always exact repeats. Equal entries are not always repeated. One block for each binder: values may come before it. * marks the point of attachment. Palmitoyl = CCCCCCCCCCCCCCCC(=O)*

Molecular target: PTHR1 receptor
Sequence (P25961 whole entry): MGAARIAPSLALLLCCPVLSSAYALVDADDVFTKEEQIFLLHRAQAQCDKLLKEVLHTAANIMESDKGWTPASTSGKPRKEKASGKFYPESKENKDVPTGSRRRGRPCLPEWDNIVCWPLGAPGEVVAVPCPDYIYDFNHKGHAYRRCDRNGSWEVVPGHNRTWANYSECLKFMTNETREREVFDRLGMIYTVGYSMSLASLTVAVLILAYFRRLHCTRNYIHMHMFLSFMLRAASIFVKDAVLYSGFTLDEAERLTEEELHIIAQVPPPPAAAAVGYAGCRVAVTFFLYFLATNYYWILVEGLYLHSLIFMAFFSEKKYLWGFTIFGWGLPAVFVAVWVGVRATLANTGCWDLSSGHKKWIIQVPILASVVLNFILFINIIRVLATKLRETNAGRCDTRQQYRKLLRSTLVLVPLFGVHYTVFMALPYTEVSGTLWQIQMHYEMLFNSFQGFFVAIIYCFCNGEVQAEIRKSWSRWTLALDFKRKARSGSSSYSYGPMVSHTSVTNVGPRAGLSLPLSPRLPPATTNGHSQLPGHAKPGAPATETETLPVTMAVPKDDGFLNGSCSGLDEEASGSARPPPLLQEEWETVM

B1: Compound 35 (peptide)
peptide: Palmitoyl-YLHSLIFMAFFSEKKYLWGFT-NH2
SMILES: CCCCCCCCCCCCCCCC(=O)N[C@@H](Cc1ccc(O)cc1)C(=O)N[C@@H](CC(C)C)C(=O)N[C@@H](Cc1c[nH]cn1)C(=O)N[C@@H](CO)C(=O)N[C@@H](CC(C)C)C(=O)N[C@H](C(=O)N[C@@H](Cc1ccccc1)C(=O)N[C@@H](CCSC)C(=O)N[C@@H](C)C(=O)N[C@@H](Cc1ccccc1)C(=O)N[C@@H](Cc1ccccc1)C(=O)N[C@@H](CO)C(=O)N[C@@H](CCC(=O)O)C(=O)N[C@@H](CCCCN)C(=O)N[C@@H](CCCCN)C(=O)N[C@@H](Cc1ccc(O)cc1)C(=O)N[C@@H](CC(C)C)C(=O)N[C@@H](Cc1c[nH]c2ccccc12)C(=O)NCC(=O)N[C@@H](Cc1ccccc1)C(=O)N[C@H](C(N)=O)[C@@H](C)O)[C@@H](C)CC
Fold Shift of EC50: 1.1 fold
Inhibition of Maximal Response: 24.5%

B3: Compound 44 (peptide)
peptide: Palmitoyl-NIVRVLATKLRETNAGRSD-NH2
SMILES: CCCCCCCCCCCCCCCC(=O)N[C@@H](CC(N)=O)C(=O)N[C@H](C(=O)N[C@H](C(=O)N[C@@H](CCCNC(=N)N)C(=O)N[C@H](C(=O)N[C@@H](CC(C)C)C(=O)N[C@@H](C)C(=O)N[C@H](C(=O)N[C@@H](CCCCN)C(=O)N[C@@H](CC(C)C)C(=O)N[C@@H](CCCNC(=N)N)C(=O)N[C@@H](CCC(=O)O)C(=O)N[C@H](C(=O)N[C@@H](CC(N)=O)C(=O)N[C@@H](C)C(=O)NCC(=O)N[C@@H](CCCNC(=N)N)C(=O)N[C@@H](CO)C(=O)N[C@@H](CC(=O)O)C(N)=O)[C@@H](C)O)[C@@H](C)O)C(C)C)C(C)C)[C@@H](C)CC
Fold Shift of EC50: 2 fold
Inhibition of Maximal Response: -8.3%

B6: Compound 33 (peptide)
peptide: Palmitoyl-HSLIFMAFFSEKKYL-NH2
SMILES: CCCCCCCCCCCCCCCC(=O)N[C@@H](Cc1c[nH]cn1)C(=O)N[C@@H](CO)C(=O)N[C@@H](CC(C)C)C(=O)N[C@H](C(=O)N[C@@H](Cc1ccccc1)C(=O)N[C@@H](CCSC)C(=O)N[C@@H](C)C(=O)N[C@@H](Cc1ccccc1)C(=O)N[C@@H](Cc1ccccc1)C(=O)N[C@@H](CO)C(=O)N[C@@H](CCC(=O)O)C(=O)N[C@@H](CCCCN)C(=O)N[C@@H](CCCCN)C(=O)N[C@@H](Cc1ccc(O)cc1)C(=O)N[C@@H](CC(C)C)C(N)=O)[C@@H](C)CC
Fold Shift of EC50: 1.1 fold
Inhibition of Maximal Response: 27.5%

B7: Compound 36 (peptide)
peptide: Palmitoyl-HSLIFMAFFSEKKYLWGFT-NH2
SMILES: CCCCCCCCCCCCCCCC(=O)N[C@@H](Cc1c[nH]cn1)C(=O)N[C@@H](CO)C(=O)N[C@@H](CC(C)C)C(=O)N[C@H](C(=O)N[C@@H](Cc1ccccc1)C(=O)N[C@@H](CCSC)C(=O)N[C@@H](C)C(=O)N[C@@H](Cc1ccccc1)C(=O)N[C@@H](Cc1ccccc1)C(=O)N[C@@H](CO)C(=O)N[C@@H](CCC(=O)O)C(=O)N[C@@H](CCCCN)C(=O)N[C@@H](CCCCN)C(=O)N[C@@H](Cc1ccc(O)cc1)C(=O)N[C@@H](CC(C)C)C(=O)N[C@@H](Cc1c[nH]c2ccccc12)C(=O)NCC(=O)N[C@@H](Cc1ccccc1)C(=O)N[C@H](C(N)=O)[C@@H](C)O)[C@@H](C)CC
Fold Shift of EC50: 1.2 fold
Inhibition of Maximal Response: 5.9%

B8: Compound 9 (peptide)
peptide: Palmitoyl-LAYFRRLHSTRNYI-NH2
SMILES: CCCCCCCCCCCCCCCC(=O)N[C@@H](CC(C)C)C(=O)N[C@@H](C)C(=O)N[C@@H](Cc1ccc(O)cc1)C(=O)N[C@@H](Cc1ccccc1)C(=O)N[C@@H](CCCNC(=N)N)C(=O)N[C@@H](CCCNC(=N)N)C(=O)N[C@@H](CC(C)C)C(=O)N[C@@H](Cc1c[nH]cn1)C(=O)N[C@@H](CO)C(=O)N[C@H](C(=O)N[C@@H](CCCNC(=N)N)C(=O)N[C@@H](CC(N)=O)C(=O)N[C@@H](Cc1ccc(O)cc1)C(=O)N[C@H](C(N)=O)[C@@H](C)CC)[C@@H](C)O
Fold Shift of EC50: 1.1 fold
Inhibition of Maximal Response: 12.7%

B11: Compound 1 (peptide)
peptide: Palmitoyl-RRLHSTRNYIHMH-NH2
SMILES: CCCCCCCCCCCCCCCC(=O)N[C@@H](CCCNC(=N)N)C(=O)N[C@@H](CCCNC(=N)N)C(=O)N[C@@H](CC(C)C)C(=O)N[C@@H](Cc1c[nH]cn1)C(=O)N[C@@H](CO)C(=O)N[C@H](C(=O)N[C@@H](CCCNC(=N)N)C(=O)N[C@@H](CC(N)=O)C(=O)N[C@@H](Cc1ccc(O)cc1)C(=O)N[C@H](C(=O)N[C@@H](Cc1c[nH]cn1)C(=O)N[C@@H](CCSC)C(=O)N[C@@H](Cc1c[nH]cn1)C(N)=O)[C@@H](C)CC)[C@@H](C)O
Fold Shift of EC50: 1.3 fold
Inhibition of Maximal Response: 5.5%

B13: Compound 7 (peptide)
peptide: Palmitoyl-AYFRRLHSTRNYIH-NH2
SMILES: CCCCCCCCCCCCCCCC(=O)N[C@@H](C)C(=O)N[C@@H](Cc1ccc(O)cc1)C(=O)N[C@@H](Cc1ccccc1)C(=O)N[C@@H](CCCNC(=N)N)C(=O)N[C@@H](CCCNC(=N)N)C(=O)N[C@@H](CC(C)C)C(=O)N[C@@H](Cc1c[nH]cn1)C(=O)N[C@@H](CO)C(=O)N[C@H](C(=O)N[C@@H](CCCNC(=N)N)C(=O)N[C@@H](CC(N)=O)C(=O)N[C@@H](Cc1ccc(O)cc1)C(=O)N[C@H](C(=O)N[C@@H](Cc1c[nH]cn1)C(N)=O)[C@@H](C)CC)[C@@H](C)O
Fold Shift of EC50: 1.2 fold
Inhibition of Maximal Response: 36%

The next lines start with the values.

Fold Shift of EC50: 2.7 fold
Inhibition of Maximal Response: 8.3%
B2: Compound 47 (peptide)
peptide: Palmitoyl-KLRETNAGRSDTRQQRKLL-NH2
SMILES: CCCCCCCCCCCCCCCC(=O)N[C@@H](CCCCN)C(=O)N[C@@H](CC(C)C)C(=O)N[C@@H](CCCNC(=N)N)C(=O)N[C@@H](CCC(=O)O)C(=O)N[C@H](C(=O)N[C@@H](CC(N)=O)C(=O)N[C@@H](C)C(=O)NCC(=O)N[C@@H](CCCNC(=N)N)C(=O)N[C@@H](CO)C(=O)N[C@@H](CC(=O)O)C(=O)N[C@H](C(=O)N[C@@H](CCCNC(=N)N)C(=O)N[C@@H](CCC(N)=O)C(=O)N[C@@H](CCC(N)=O)C(=O)N[C@@H](CCCNC(=N)N)C(=O)N[C@@H](CCCCN)C(=O)N[C@@H](CC(C)C)C(=O)N[C@@H](CC(C)C)C(N)=O)[C@@H](C)O)[C@@H](C)O

Fold Shift of EC50: 1.5 fold and 2.3 fold
B4: Compound 49 (peptide)
peptide: Palmitoyl-TNAGRSDTRQQRKLLKSTL-NH2
SMILES: CCCCCCCCCCCCCCCC(=O)N[C@H](C(=O)N[C@@H](CC(N)=O)C(=O)N[C@@H](C)C(=O)NCC(=O)N[C@@H](CCCNC(=N)N)C(=O)N[C@@H](CO)C(=O)N[C@@H](CC(=O)O)C(=O)N[C@H](C(=O)N[C@@H](CCCNC(=N)N)C(=O)N[C@@H](CCC(N)=O)C(=O)N[C@@H](CCC(N)=O)C(=O)N[C@@H](CCCNC(=N)N)C(=O)N[C@@H](CCCCN)C(=O)N[C@@H](CC(C)C)C(=O)N[C@@H](CC(C)C)C(=O)N[C@@H](CCCCN)C(=O)N[C@@H](CO)C(=O)N[C@H](C(=O)N[C@@H](CC(C)C)C(N)=O)[C@@H](C)O)[C@@H](C)O)[C@@H](C)O

Fold Shift of EC50: 7 fold
Inhibition of Maximal Response: -3.3%
B5: Compound 48 (peptide)
peptide: Palmitoyl-RETNAGRSDTRQQRKLLKS-NH2
SMILES: CCCCCCCCCCCCCCCC(=O)N[C@@H](CCCNC(=N)N)C(=O)N[C@@H](CCC(=O)O)C(=O)N[C@H](C(=O)N[C@@H](CC(N)=O)C(=O)N[C@@H](C)C(=O)NCC(=O)N[C@@H](CCCNC(=N)N)C(=O)N[C@@H](CO)C(=O)N[C@@H](CC(=O)O)C(=O)N[C@H](C(=O)N[C@@H](CCCNC(=N)N)C(=O)N[C@@H](CCC(N)=O)C(=O)N[C@@H](CCC(N)=O)C(=O)N[C@@H](CCCNC(=N)N)C(=O)N[C@@H](CCCCN)C(=O)N[C@@H](CC(C)C)C(=O)N[C@@H](CC(C)C)C(=O)N[C@@H](CCCCN)C(=O)N[C@@H](CO)C(N)=O)[C@@H](C)O)[C@@H](C)O

Fold Shift of EC50: 12.4 fold
Inhibition of Maximal Response: -0.015
B9: Compound 51 (peptide)
peptide: Palmitoyl-RETNAGRSDTRQQYRKLLKS-NH2
SMILES: CCCCCCCCCCCCCCCC(=O)N[C@@H](CCCNC(=N)N)C(=O)N[C@@H](CCC(=O)O)C(=O)N[C@H](C(=O)N[C@@H](CC(N)=O)C(=O)N[C@@H](C)C(=O)NCC(=O)N[C@@H](CCCNC(=N)N)C(=O)N[C@@H](CO)C(=O)N[C@@H](CC(=O)O)C(=O)N[C@H](C(=O)N[C@@H](CCCNC(=N)N)C(=O)N[C@@H](CCC(N)=O)C(=O)N[C@@H](CCC(N)=O)C(=O)N[C@@H](Cc1ccc(O)cc1)C(=O)N[C@@H](CCCNC(=N)N)C(=O)N[C@@H](CCCCN)C(=O)N[C@@H](CC(C)C)C(=O)N[C@@H](CC(C)C)C(=O)N[C@@H](CCCCN)C(=O)N[C@@H](CO)C(N)=O)[C@@H](C)O)[C@@H](C)O

Fold Shift of EC50: 0.9 fold
Inhibition of Maximal Response: 20.3%
B10: Compound 46 (peptide)
peptide: Palmitoyl-VLATKLRETNAGRSDTRQQ-NH2
SMILES: CCCCCCCCCCCCCCCC(=O)N[C@H](C(=O)N[C@@H](CC(C)C)C(=O)N[C@@H](C)C(=O)N[C@H](C(=O)N[C@@H](CCCCN)C(=O)N[C@@H](CC(C)C)C(=O)N[C@@H](CCCNC(=N)N)C(=O)N[C@@H](CCC(=O)O)C(=O)N[C@H](C(=O)N[C@@H](CC(N)=O)C(=O)N[C@@H](C)C(=O)NCC(=O)N[C@@H](CCCNC(=N)N)C(=O)N[C@@H](CO)C(=O)N[C@@H](CC(=O)O)C(=O)N[C@H](C(=O)N[C@@H](CCCNC(=N)N)C(=O)N[C@@H](CCC(N)=O)C(=O)N[C@@H](CCC(N)=O)C(N)=O)[C@@H](C)O)[C@@H](C)O)[C@@H](C)O)C(C)C

Fold Shift of EC50: 1.4 fold
Inhibition of Maximal Response: 9.1%
B12: Compound 45 (peptide)
peptide: Palmitoyl-VRVLATKLRETNAGRSDTR-NH2
SMILES: CCCCCCCCCCCCCCCC(=O)N[C@H](C(=O)N[C@@H](CCCNC(=N)N)C(=O)N[C@H](C(=O)N[C@@H](CC(C)C)C(=O)N[C@@H](C)C(=O)N[C@H](C(=O)N[C@@H](CCCCN)C(=O)N[C@@H](CC(C)C)C(=O)N[C@@H](CCCNC(=N)N)C(=O)N[C@@H](CCC(=O)O)C(=O)N[C@H](C(=O)N[C@@H](CC(N)=O)C(=O)N[C@@H](C)C(=O)NCC(=O)N[C@@H](CCCNC(=N)N)C(=O)N[C@@H](CO)C(=O)N[C@@H](CC(=O)O)C(=O)N[C@H](C(=O)N[C@@H](CCCNC(=N)N)C(N)=O)[C@@H](C)O)[C@@H](C)O)[C@@H](C)O)C(C)C)C(C)C
